Data: paper PMC5078793

Biological target: LTBP-1 C-terminal region (UniProt Q14766)
Test: SPR; Biacore; LTBP-1 C-terminal region immobilised by amine coupling on CM5 (methods); 10 mM HEPES pH 7.4, 0.1 M NaCl, 0.5 mM CaCl2, 0.005% P20

LTBP-1 C-terminal region, sequence (Q14766 24-1721): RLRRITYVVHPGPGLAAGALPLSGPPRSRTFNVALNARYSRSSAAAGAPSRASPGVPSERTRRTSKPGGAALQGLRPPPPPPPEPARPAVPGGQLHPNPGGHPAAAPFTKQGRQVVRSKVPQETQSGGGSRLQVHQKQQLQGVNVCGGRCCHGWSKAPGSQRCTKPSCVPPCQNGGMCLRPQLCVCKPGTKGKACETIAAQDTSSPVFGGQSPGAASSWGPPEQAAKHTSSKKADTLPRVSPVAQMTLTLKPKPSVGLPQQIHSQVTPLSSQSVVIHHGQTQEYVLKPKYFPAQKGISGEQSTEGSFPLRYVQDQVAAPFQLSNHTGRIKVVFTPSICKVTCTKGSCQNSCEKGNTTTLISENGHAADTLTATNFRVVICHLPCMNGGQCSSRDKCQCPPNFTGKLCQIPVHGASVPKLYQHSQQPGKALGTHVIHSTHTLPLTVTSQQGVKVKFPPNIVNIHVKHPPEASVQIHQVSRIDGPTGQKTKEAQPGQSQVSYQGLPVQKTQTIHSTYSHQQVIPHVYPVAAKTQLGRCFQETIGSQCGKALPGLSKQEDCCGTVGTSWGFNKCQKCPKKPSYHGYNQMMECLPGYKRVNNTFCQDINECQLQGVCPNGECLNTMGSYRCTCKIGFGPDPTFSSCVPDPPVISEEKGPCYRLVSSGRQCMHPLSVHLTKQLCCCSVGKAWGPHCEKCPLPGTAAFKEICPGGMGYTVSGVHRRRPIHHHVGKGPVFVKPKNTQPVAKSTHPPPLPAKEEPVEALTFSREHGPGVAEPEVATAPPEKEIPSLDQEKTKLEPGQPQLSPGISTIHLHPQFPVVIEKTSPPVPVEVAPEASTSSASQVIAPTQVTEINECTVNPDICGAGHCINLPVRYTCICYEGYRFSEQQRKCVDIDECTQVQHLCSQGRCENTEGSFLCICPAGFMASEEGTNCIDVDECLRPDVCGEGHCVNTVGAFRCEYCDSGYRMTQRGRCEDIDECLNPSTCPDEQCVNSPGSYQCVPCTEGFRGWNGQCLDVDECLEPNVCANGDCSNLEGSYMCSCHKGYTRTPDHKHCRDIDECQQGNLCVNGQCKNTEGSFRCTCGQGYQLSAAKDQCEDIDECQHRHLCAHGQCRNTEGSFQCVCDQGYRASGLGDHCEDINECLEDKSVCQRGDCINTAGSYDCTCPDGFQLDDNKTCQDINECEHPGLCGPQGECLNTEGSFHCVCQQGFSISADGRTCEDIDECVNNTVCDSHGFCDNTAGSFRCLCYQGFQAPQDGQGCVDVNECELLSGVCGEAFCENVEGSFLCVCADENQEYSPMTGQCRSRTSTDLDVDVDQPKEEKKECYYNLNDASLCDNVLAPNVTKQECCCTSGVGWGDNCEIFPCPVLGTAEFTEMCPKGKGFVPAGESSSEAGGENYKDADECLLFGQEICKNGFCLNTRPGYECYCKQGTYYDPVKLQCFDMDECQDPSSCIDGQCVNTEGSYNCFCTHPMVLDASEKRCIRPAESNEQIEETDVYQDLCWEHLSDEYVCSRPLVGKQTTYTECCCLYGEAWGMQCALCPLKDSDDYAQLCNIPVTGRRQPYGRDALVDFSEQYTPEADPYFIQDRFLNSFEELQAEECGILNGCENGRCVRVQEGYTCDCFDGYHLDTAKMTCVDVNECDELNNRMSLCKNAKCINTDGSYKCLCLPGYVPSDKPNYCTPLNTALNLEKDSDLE

Kd: 59 nM
B1: ADAMTS6 C-terminal region (domain or fragment)
chain: DGGWGPWSLWGECSRTCGGGVSSSLRHCDSPAPSGGGKYCLGERKRYRSCNTDPCPLGSRDFREKQCADFDNMPFRGKYYNWKPYTGGGVKPCALNCLAEGYNFYTERAPAVIDGTQCNADSLDICINGECKHVGCDNILGSDAREDRCRVCGGDGSTCDAIEGFFNDSLPRGGYMEVVQIPRGSVHIEVREVAMSKNYIALKSEGDDYYINGAWTIDWPRKFDVAGTAFHYKRPTDEPESLEALGPTSENLIVMVLLQEQNLGIRYKFNVPITRTGSGDNEVGFTWNHQPWSECSATCAGGVQRQEVVCKRLDDNSIVQNNYCDPDSKPPENQRACNTEPCPPEWFIGDWLECSKTCDGGMRTRAVLCIRKIGPSEEETLDYSGCLTHRPVEKEPCNNQSCPPQWVALDWSECTPKCGPGFKHRIVLCKSSDLSKTFPAAQCPEESKPPVRIRCSLGRCPPPRWVTGDWGQCSAQCGLGQQMRTVQCLSYTGQASSDCLETVRPPSMQQCESKCDSTPISNTEECKDVNKVAYCPLVLKFKFCSRAYFRQMCCKTCQGH
